Publication PMC12240541 (Science (New York, N.Y.), 2021)

Target: recombinant SARS-CoV-2 wildtype Wuhan-Hu-1 S ectodomain trimer (SARS-CoV-2, Wuhan-Hu-1, UniProt P0DTC2)
Experiment: ELISA
Conditions: both partners purified

Row | Binder | binding result
1 | S2X303 mAb (antibody, V domains shown, copies: 2 + 2) VH: QITLKESGPTLVKPTQTLTLTCKLSGFSVNTGGVGVGWIRQPPGKALEWLALIYWNDDKLYSPSLKSRLTVTKDTSKNQVVLTMTNMDPVDTATYYCAHVLVWFGEVLPDAFDVWGQGTMVTVSS VL: SYELTQPPSVSVSPGQTASITCSGDKLGETYASWYQQKPGQSPILVIYQDNKRPSGIPERFSGSNSENTATLTISGTQTMDEADYYCQAWDKTIAGFGGGTKLTV | binds
2 | S2L20 mAb (antibody, V domains shown, copies: 2 + 2) VH: EVQLVESGGGVVQPGGSLRLSCAASGFTFNSYGMHWVRQAPGKGLEWVAFIRYDGGNKYYADSVKGRFTISRDNSKNTLYLQMKSLRAEDTAVYYCANLKDSRYSGSYYDYWGQGTLVTVS VL: not shown | binds
